Biological target: Rho-kinase (ROCK), endogenous in Swiss 3T3 mouse fibroblasts (mouse)
Assay: cell-based or functional assay

Row | Binder | dose at which inhibition of LPA-induced stress fibers becomes significant [µM]
1 | RQIKIWFQNRRMKWKKGIVFSKDQFPEVYVPTVFE [P1-RhoA 23-40 fusion domain (Penetratin-1 fused through a glycine to human RhoA amino acids 23-40)] | 10
2 | RQIKIWFQNRRMKWKKGPDTDVILMCFSIDSPDSL [P1-RhoA 75-92 fusion domain (Penetratin-1 fused through a glycine to human RhoA amino acids 75-92)] | 10

— patent US20050209147A1 (Stanford University, published 2005)
